Where two headings read alike, the source gives them in different places.
T1: CynoCD40-His protein (Acro, Cat. No.: CD0-C52H6) (cynomolgus monkey, UniProt P25942 21-193 (human entry))
T1 construct: Bought protein; also called cynomolgus monkey CD40 antigen; not shown: His tag
T1 chain: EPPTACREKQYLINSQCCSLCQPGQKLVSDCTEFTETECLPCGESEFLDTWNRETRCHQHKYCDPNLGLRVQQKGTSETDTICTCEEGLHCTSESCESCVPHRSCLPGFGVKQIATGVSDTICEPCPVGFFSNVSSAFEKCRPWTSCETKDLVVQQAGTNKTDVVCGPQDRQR

B1: Chi-A01 (antibody, human IgG4 S228P, kappa, V domains shown)
VH: QVQLKESGPGLVAPSQSLSITCTVSGFSLPTSGVHWVRQPPGKGLEWLGVIWAGGDTNYNSALMSRLSISKDNSKSQVFLKMNSLQKDDTAIYYCLGHGHFDVWGAGTTVTVSS
VL: DVVMTQTPLSLPVSLGDQASISCRSSQSLVHSSGNTYLQWYLQKPGQSPGLLIYKVSNRFSGVPDRFSGSGSGTDFTLKISRVEAEDLGVYFCSQTTHVPWTFGGGTKLEIKR
notes: also called chimeric A01
B2: Chi-A02 (antibody, human IgG4 S228P, kappa, V domains shown)
VH: QVQLKESGPGLVAPSQSLSITCTVSGFSLTSSGVHWVRQPPGKGLEWLGVIWAGGDTSYNSALMSRLSISKDNSKSQVFLKMNSLQTDDTAMYYCLGHGHLDVWGAGTTVTVSS
VL: DVVMTQTPLSLPVSLGDQASISCRSSQSLVHSSGNTYLHWYLQKPGQSPGLLIYKVSNRFSGVPDRFSGSGSGTDFTLKISRVEAEDLGVYFCSQTTHVPWTFGGGTKLEIKR
notes: also called chimeric A02
B3: Chi-A03 (antibody, human IgG4 S228P, kappa, V domains shown)
VH: DVQLQESGPDRVKPSQSLSLTCTVTGYSITSDYSWHWIRQFPGNKLEWMGYIYSSGHTYYNPSLKSRISFTRDTSKNQFFLQLNSVTTEDTATYYCAIYYYGRSYFDNWGRGTTLTVSS
VL: QIVLTQSPAIMSASPGEKVTLTCSASSSVNYMHWYQQKSGTSPKRWIYDTSKLASGVPARFSGSGSGTSYSLTISSMEAEDAATYYCQQWSSNPLTFGAGTKLELKR
notes: also called chimeric A03
B4: Iscalimab (CFZ533) (antibody, human IgG1, kappa, N297A, V domains shown)
VH: QVQLVESGGGVVQPGRSLRLSCAASGFTFSSYGMHWVRQAPGKGLEWVAVISYEESNRYHADSVKGRFTISRDNSKITLYLQMNSLRTEDTAVYYCARDGGIAAPGPDYWGQGTLVTVSS
VL: DIVMTQSPLSLTVTPGEPASISCRSSQSLLYSNGYNYLDWYLQKPGQSPQVLISLGSNRASGVPDRFSGSGSGTDFTLKISRVEAEDVGVYYCMQARQTPFTFGPGTKVDIRR
notes: also called BM; benchmark

Key:
[1] = biological target: T2, human CD40 (hCD40), full length, on cells (human, UniProt P25942 21-277); test: cell-based or functional assay
[2] = biological target: T3, hCD40-His protein (Acro, Cat. No.: CD0-H5228) (human, UniProt P25942 21-193); test: BLI (Fortebio Octet RED96e), antibody captured on AHC sensor, antigen 1.56-100 nM, 1:1 model
T3 construct: Bought protein; also called human CD40 antigen; not shown: His tag
Experimental: (§1) The affinity of humanized anti-CD40 antibodies to an hCD40-His protein (Acro, Cat. No.: CD0-H5228) and a CynoCD40-His protein (Acro, Cat. No.: CD0-C52H6) was detected by a ForteBio molecular interaction system. Firstly, an AHC biosensor (Fortebio, Cat. No.: 18-5060) was activated, and then immersed in an anti-CD40 antibody solution at a final concentration of 5 μg/mL to capture the antibodies. Serially 2-fold diluted hCD40-His protein and CynoCD40-His protein in a final concentration range of 1.56 nM-100 nM were then […] the AHC biosensor. The response signals were detected in real time on a Fortebio molecular interaction system (Fortebio Octet RED96e) to give association and dissociation curves. After the completion of dissociation in each cycle, the AHC biosensor was regenerated for the next capture; the procedure was repeated until the affinity of the different antibodies for CD40 was determined. The resulting data were analyzed by Fortebio Data Analysis 11.0 software using a 1:1 (Langmuir) binding model to determine the Kₐ (Kₒₙ) and Kd (Kdis) values, and the dissociation constant KD was calculated by KD=Kd/Kₐ. See www.fortebio.com for more detailed detection procedures and related information.

[3] = biological target: T1, CynoCD40-His protein (Acro, Cat. No.: …); test: as above
Experimental: as §1

hCD40-mFc = biological target: T4, hCD40-mFc (human); test: flow cytometry, blocking of hCD40-mFc (2 µg/mL) binding to CHO-K1-hCD40L cells
T4 construct: Prepared in-house in CHO cells; also called human CD40 recombinant protein containing a mouse antibody heavy chain Fc; Human CD40-mFc
Experimental: A CHO-K1-hCD40L cell suspension and a CHO-K1-CynoCD40L cell suspension at a cell concentration of 3×10⁵ cells/mL were separately added into a 96-well U-bottom plate at 100 μL/well. An hCD40-mFc protein at a final concentration of 2 μg/mL (prepared in-house, SEQ ID NO: 64) or a cynoCD40-mFc protein at a final concentration of 2 μg/mL (prepared in-house, SEQ ID NO: 65) was added correspondingly, before serially 2-fold diluted anti-CD40 antibodies in a final concentration range of 312.5 ng/ml-40000 ng/ml were added. The mixture was mixed well, and then incubated at 4° C. for 1 h. The cells were washed with PBS containing 2% of FBS, and then a PE-conjugated goat anti-mouse IgG (H+L) antibody (Abcam, Cat. No.: ab97041) diluted at a volume ratio of 1:500 was added, and the mixture was incubated at 4° C. for 0.5 h. The cells were washed with PBS containing 2% of […], and then resuspended in PBS containing 2% of FBS. The fluorescence signals were detected on a flow cytometer (Sartorius IQue3). The activity of anti-CD40 antibodies to block the binding of CHO-K1-hCD40L cells to an hCD40-mFc protein and CHO-K1-cynoCD40L cells to a cynoCD40-mFc protein was analyzed by the mean fluorescence intensity (MFI) of staining, and the IC₅₀ value was calculated by GraphPad Prism software.

[4] = biological target: T2, human CD40 (hCD40), full length, on …; test: flow cytometry (MFI) on CHO-K1-hCD40 cells, PE anti-human IgG detection
[5] = biological target: T2, human CD40 (hCD40), full length, on …; test: cell-based or functional assay; remark: listed apart in the source
[6] = biological target: T2, human CD40 (hCD40), full length, on …; test: flow cytometry (MFI) on 293T-hCD40-NFκB cells, PE anti-human IgG detection
[7] = biological target: T2, human CD40 (hCD40), full length, on …; test: cell-based or functional assay; remark: listed apart in the source
[8] = biological target: T2, human CD40 (hCD40), full length, on …; test: cell-based or functional assay; remark: listed apart in the source

Binder	IC50, inhibition of Ramos cell apoptosis induced by CD40L and IL-4 [1] [nM]	Inhibition, % of Ramos cell apoptosis at 0.064 ng/L (so in the source) [1] [%]	Inhibition, % of Ramos cell apoptosis at 0.32 ng/L (so in the source) [1] [%]	Inhibition, % of Ramos cell apoptosis at 1.6 ng/L (so in the source) [1] [%]	Inhibition, % of Ramos cell apoptosis at 8 ng/L (so in the source) [1] [%]	Inhibition, % of Ramos cell apoptosis at 40 ng/L (so in the source) [1] [%]	Inhibition, % of Ramos cell apoptosis at 200 ng/L (so in the source) [1] [%]	Inhibition, % of Ramos cell apoptosis at 1000 ng/L (so in the source) [1] [%]	Kd [2] [nM]	koff [2] [s⁻¹]	kon [2] [M⁻¹ s⁻¹]	Kd [3] [nM]	koff [3] [s⁻¹]	kon [3] [M⁻¹ s⁻¹]	IC50 (hCD40-mFc) [nM]	EC50 [4] [nM]	IC50 (read off the curve); NF-κB luciferase reporter (RLU), 293T-hCD40-NFκB cells co-cultured 1:1 with CHO-K1-hCD40L cells [5] [ng/mL]	EC50 (read off the curve) [6] [ng/mL]	IC50, inhibition of Ramos cell apoptosis induced by CD40L and IL-4 [7] [nM]	Inhibition, % of Ramos cell apoptosis at 0.0128 ng/mL [7] [%]	other results
B1	0.00508	0	17	82	96	95	96	95	0.153	0.000283	1.85e+06	0.162	0.000276	1.7e+06	21.3	0.43	~0.6	~2	0.00413	11	Inhibition, % of Ramos cell apoptosis at 0.064 ng/mL [7]: 10%; Inhibition, % of Ramos cell apoptosis at 0.32 ng/mL [7]: 39%; Inhibition, % of Ramos cell apoptosis at 1.6 ng/mL [7]: 79%; Inhibition, % of Ramos cell apoptosis at 8 ng/mL [7]: 101%; Inhibition, % of Ramos cell apoptosis at 40 ng/mL [7]: 99%; Inhibition, % of Ramos cell apoptosis at 200 ng/mL [7]: 101%; Inhibition, % of Ramos cell apoptosis at 1000 ng/mL [7]: 100%
B2	0.00499	5	20	85	98	97	97	94	–	–	–	–	–	–	–	0.39	–	–	–	–	–
B3	0.134	-8	-9	-10	18	66	90	98	2.51	0.00147	586000	–	–	–	–	1.36	–	–	–	–	–
B4	0.0183	4	12	41	85	97	99	98	0.118	5.61e-05	474000	0.0559	4.3e-05	769000	20.6	0.36	~8	~10	0.0247	-26	MFI value (CD95 on Ramos cells), Fc crosslinking with anti-human IgG Fcγ antibody, 1 µg/mL antibody [8]: 12500 MFI; MFI value (CD95 on Ramos cells), Fc crosslinking with anti-human IgG Fcγ antibody, 10 µg/mL antibody [8]: 12100 MFI; Inhibition, % of Ramos cell apoptosis at 0.064 ng/mL [7]: -24%; Inhibition, % of Ramos cell apoptosis at 0.32 ng/mL [7]: -10%; Inhibition, % of Ramos cell apoptosis at 1.6 ng/mL [7]: 5%; Inhibition, % of Ramos cell apoptosis at 8 ng/mL [7]: 72%; Inhibition, % of Ramos cell apoptosis at 40 ng/mL [7]: 98%; Inhibition, % of Ramos cell apoptosis at 200 ng/mL [7]: 100%; Inhibition, % of Ramos cell apoptosis at 1000 ng/mL [7]: 101%

— patent publication US20240383994A1 (CHIA TAI TIANQING PHARMACEUTICAL GROUP, published 2024)
